One may read the Kd as a measure of binding affinity in units of concentration. What is called EC50 (read off the curve) is the concentration at which the effect is half-maximal. Read a high EC50 (read off the curve) as lower potency in that assay.

We go through three molecules from patent publication US20250388694A1 (BOOSTIMMUNE, published 2025).

Assay [1] has as its target T1, Human TCTP (translationally controlled tumor protein) (human, UniProt P13693 1-172).
T1 construct: also called HRF; Tpt1
T1 sequence: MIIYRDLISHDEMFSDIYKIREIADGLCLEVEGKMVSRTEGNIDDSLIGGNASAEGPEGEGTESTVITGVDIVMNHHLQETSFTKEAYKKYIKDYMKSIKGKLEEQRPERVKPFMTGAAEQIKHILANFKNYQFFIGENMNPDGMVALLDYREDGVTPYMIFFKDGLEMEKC
The experiment in a line: ELISA, selection of hybridoma antibodies. Background: ELISA stands for enzyme-linked immunosorbent assay.

Assay [2] concerns the target T1, Human TCTP (translationally controlled …). The experiment in a line: competition ELISA: human TCTP coated at 1 µg/ml, 150 nM TLR2 plus titrated antibody, bound TLR2 detected; % inhibition of TLR2-TCTP binding.
The target is the same in assay [3]. The experiment in a line: SPR, Biacore 8K, human TCTP immobilised on CM5 chip, antibody as analyte, 1:1 model. As to the method:
The antigen binding capacity of antibodies selected in Example 1 was analyzed using a SPR technique. The device used was Biacore 8K (Ge Healthcare). Human TCTP was immobilized on a chip, and antibodies were shed at 6 or 7 different concentrations. A CM5 chip (GE Healthcare, Cat. 29-1275-56), a regeneration buffer (10 mM glycine-HCl (GE Healthcare)), and a driving buffer HBS-EP+, and the like were used. For kinetic analysis, the binding time was set to 100 or 120 seconds, the flow rate was set to 30 or 50 μl/min in the binding phase, and in the dissociation phase, the dissociation time was set to 300 or 360 seconds, and the flow rate was set to 30 or 50 μl/min. The fitting was carried out using a 1:1 combined model, and BIACore Evaluation Software (GE healthcare) was used as the evaluation software.

The target is the same in assay [4]. The experiment in a line: ELISA, human TCTP coated at 1 µg/ml, antibody titrated, OD 450 nm. As to the method: ELISA was carried out to quantitatively analyze the binding capacity of selected antibodies to antigens. To this end, human TCTP was attached to an ELISA plate at a concentration of 1 μg/ml and then treated with antibodies of various concentrations to check the relative binding capacity. As a result of the measurement, all of antibodies Ab1, Ab2, Ab3, Ab4, Ab5, Ab6, Ab7, Ab8, Ab9, Ab12, Ab13, Ab14, Ab15, Ab17, Ab18, Ab19, Ab20, Ab21, and Ab22 were confirmed to bind well to human TCTP (FIGS. 1a and 1b).

The target in assay [5] is T2, mouse TCTP (mouse, UniProt P63028 1-172).
T2 sequence (looked up): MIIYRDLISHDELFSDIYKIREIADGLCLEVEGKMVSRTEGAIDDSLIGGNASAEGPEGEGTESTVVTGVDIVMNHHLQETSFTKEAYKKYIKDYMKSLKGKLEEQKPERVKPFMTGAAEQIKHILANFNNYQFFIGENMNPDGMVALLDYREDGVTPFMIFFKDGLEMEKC
The experiment in a line: ELISA on mouse TCTP, binder titrated as scFv (axis [scFv] Log(nM)), OD450 [panel Mouse TCTP].

In assay [6] the target is T3, mouse TCTP in which the 13th leucine was replaced with methionine (mouse, UniProt P63028 1-172).
T3 construct: One of several mouse-to-human replacement mutants; also called mouse TCTP L13M
T3 sequence (looked up): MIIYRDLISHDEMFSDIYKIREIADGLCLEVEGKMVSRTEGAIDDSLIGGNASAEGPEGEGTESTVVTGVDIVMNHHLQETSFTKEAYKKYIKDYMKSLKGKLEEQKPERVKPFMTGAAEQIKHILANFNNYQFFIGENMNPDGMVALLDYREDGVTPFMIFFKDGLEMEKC
The experiment in a line: ELISA on mouse TCTP mutants.

B1: Ab16 (antibody, V domains shown)
VH: QVQLQQSGPGLVKPSQTLSLTCAISGDSVSSNSAAWNWIRQSPSRGLEWLGRTYYKSKWYNDYAVSVKSRMTINPDTSKNQFSLQLNSVTPEDTAVYYCARGGSAVFDYWGQGTLVTVSS
VL: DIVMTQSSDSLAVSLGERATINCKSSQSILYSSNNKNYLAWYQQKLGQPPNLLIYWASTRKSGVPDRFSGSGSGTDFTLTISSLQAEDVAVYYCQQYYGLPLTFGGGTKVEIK
notes: also called antibody Ab16
As for B1, the binding result in assay [1] is reported as “binds”.

B2: Ab8 (antibody, V domains shown)
VH: QVQLVQSGAEVKKPGASVKVSCKASGYTFFSYAMHWVRQAPGQRLEWMGWINAGNGNTKYSQKFQDRVTITRDTSATTAYMELSSLRSEDTAVYYCASWVFDYWGQGTPVTVSS
VL: DIVMTQTPLSSLVTLGQPASISCRSSQSLVHRDGNTYLSWLQQRPGQPPRLLIYKISNRFFGVPDRFSGSGAGTDFTLKISRVEAEDVGVYYCMQATQFPHTFGQGTKLEIK
notes: From Beacon screening; also called antibody Ab8
In the case of B2, the “IC50 (read off the curve)” value in assay [2] was about 6 nM. The same molecule returned a Kd in assay [3] of 14 nM. Besides, in assay [4], the “EC50 (read off the curve)” value is about 0.02 mg/L.

B3: Ab10 (antibody, V domains shown)
VH: not shown
VL: QSVVTQPPSVSAAPGQKVTISCSGSSSNIGNKKVSWYQQLPVTAPKLLIYDDNKRPSGIPDRFSGSKSGTSATLGITGLQTGDEADYYCATWDSSLRAVVFGGGTKLTVL
notes: also called antibody Ab10; parent antibody
For the molecule B3, the binding result in assay [5] and in assay [6] was “binds” throughout. This molecule also gave a Kd in assay [3] of 0.224 nM.
